This note sets out measurements from patent US20240025965A1 (UNIVERSITEIT TWENTE, published 2024).

Where no end group is shown, it is not given here.

One assay concerns the target T1, rhIntegrin α11β1 (human, UniProt Q9UKX5 23-1141; P05556 21-728, limits assumed).
T1 construct: Bought from R&D Systems; also called α11β1 receptor; ITGA11 receptor
Nature of the assay: microscale thermophoresis, 1 µM labelled peptide, receptor titrated, in solution. On the procedure: (§1) Fluorescent labeled peptide (AV3-PEG(6)-5FAM or AXI-I-PEG(6)-FITC) (1 μM) was incubated with different concentrations of a human recombinant receptor (i.e., α5β1, α11β1 or αvβ3) for 10 minutes in Eppendorf tubes. The mixture of peptide and receptor was loaded in to NT.115™ hydrophilic glass capillaries. In order to find the best thermophoretic setting, the binding of peptide to the target receptor was examined at low (20%), middle (40%), and high (80%) MST power and all other binding experiments were performed using the same MST-settings. Finally, the dissociation constant (Kd) value was calculated from an average of three experiments.
(§2) Fluorescent labeled peptides (AV3-PEG(6)-5FAM and AXI-I-PEG(6)-FITC) were examined for their binding affinities against α5β1 and α11β1 receptors, respectively using microscale thermophoresis (MST). MST allows peptides to interact with the receptors in solution phase. These peptides were also exposed to an irrelevant receptor of the integrin family αvβ3 and MST analyses were performed.

Assay [1] has as its target T2, human recombinant receptor αvβ3 (human, UniProt P06756 31-992; P05106 27-718, limits assumed).
T2 construct: also called irrelevant receptor of the integrin family
Nature of the assay: microscale thermophoresis, 1 µM labelled peptide. On the procedure:
as §1, §2
On the technique in general: Microscale thermophoresis detects binding through changes in fluorescence in a small temperature gradient.

Assay [2] has as its target T3, ITGA11 on human stellate cells (LX2 hepatic stellate cells; primary pancreatic stellate cells) (human, UniProt Q9UKX5 23-1188).
T3 construct: whole, on cells; For the pancreatic stellate cells the target is only implied; also called ITGA11-expressing hepatic stellate cells; ITGA11 expressing LX2 cells
T3 sequence (looked up): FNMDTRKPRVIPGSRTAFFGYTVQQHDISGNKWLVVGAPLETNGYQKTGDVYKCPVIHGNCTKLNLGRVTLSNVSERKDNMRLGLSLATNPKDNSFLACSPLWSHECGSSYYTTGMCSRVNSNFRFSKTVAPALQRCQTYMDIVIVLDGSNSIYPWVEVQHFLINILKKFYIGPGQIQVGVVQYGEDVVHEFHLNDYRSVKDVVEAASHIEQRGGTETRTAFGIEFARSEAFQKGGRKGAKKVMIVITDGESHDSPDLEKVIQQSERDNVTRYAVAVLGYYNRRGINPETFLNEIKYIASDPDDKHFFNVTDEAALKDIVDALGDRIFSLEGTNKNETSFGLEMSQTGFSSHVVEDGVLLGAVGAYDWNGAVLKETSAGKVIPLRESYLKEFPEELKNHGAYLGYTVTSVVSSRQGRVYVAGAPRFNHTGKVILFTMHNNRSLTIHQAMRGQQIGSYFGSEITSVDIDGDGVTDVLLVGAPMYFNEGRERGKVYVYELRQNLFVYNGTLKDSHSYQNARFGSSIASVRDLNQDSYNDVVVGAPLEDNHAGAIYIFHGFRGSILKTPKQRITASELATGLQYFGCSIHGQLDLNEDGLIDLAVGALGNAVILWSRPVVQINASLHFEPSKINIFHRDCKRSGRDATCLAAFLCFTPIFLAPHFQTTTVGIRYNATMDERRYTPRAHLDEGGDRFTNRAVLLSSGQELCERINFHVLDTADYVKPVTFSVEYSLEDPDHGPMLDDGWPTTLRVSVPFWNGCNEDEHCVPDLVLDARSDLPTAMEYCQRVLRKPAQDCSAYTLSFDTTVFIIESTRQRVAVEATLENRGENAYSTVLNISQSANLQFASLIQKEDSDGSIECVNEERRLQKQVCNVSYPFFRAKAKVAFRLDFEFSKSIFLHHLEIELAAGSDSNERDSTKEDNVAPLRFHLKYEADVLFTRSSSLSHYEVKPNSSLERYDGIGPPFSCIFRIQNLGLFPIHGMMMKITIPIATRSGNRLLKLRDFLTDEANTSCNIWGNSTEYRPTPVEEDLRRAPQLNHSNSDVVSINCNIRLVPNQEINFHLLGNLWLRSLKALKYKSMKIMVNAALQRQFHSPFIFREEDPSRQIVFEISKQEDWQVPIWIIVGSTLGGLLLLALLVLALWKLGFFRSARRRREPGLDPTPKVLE
Nature of the assay: flow cytometry of AXI-I-PEG-FITC on suspended primary human pancreatic stellate cells, 1 hour at 4 °C. On the procedure:
(§3) PSCs were trypsinized using trypsin-EDTA solution and cell numbers were diluted to 4×10⁴ cells/ml. Cells were incubated at 37° C. for 30 minutes to allow receptor recovery. Then different concentrations of AXI-I-FITC was added to the cells containing 2% FBS and incubated at 4° C. for 60 minutes. Thereafter, cells were centrifuged at 1500 rpm at 4° C. for 10 minutes. Supernatant was removed and cells were washed 3 times with PBS and then were fixed with 0.5% formaldehyde for 1 hour at 4° C. and measured with flow cytometry for fluorescence.
(§4) Different concentrations of AXI-I-PEG-FITC was incubated with suspended PSCs for 1 hour at 4° C., washed and fixed with 0.5% formaldehyde and measured with flow cytometry. […] The 50% of the total binding, i.e., dissociation constant (kd) value was approximately 1 uM. Since the peptide has been modified with PEG chain and a fluorophore, the binding affinity of the peptide may be reduced due to steric hindrance.
In general terms: A flow cytometer gives signals particle by particle.

The target in assay [3] is T3, ITGA11 on human stellate cells (LX2 …). Nature of the assay: flow cytometry on suspended primary human pancreatic stellate cells, 1 hour at 4° C.; whole-cell binding on suspended primary human pancreatic stellate cells, 1 hour at 4° C., flow cytometry; PEG- and FITC-modified peptide. Here is the method:
as §3, §4

The target of assay [4] is T4, α5β1 human recombinant protein (human, UniProt P08648 42-995; P05556 21-728).
T4 construct: Bought from R&D Systems; also called α5β1 receptor; integrin α5β1
T4 sequence (P08648 42-995 limits assumed, chain 1 of 2): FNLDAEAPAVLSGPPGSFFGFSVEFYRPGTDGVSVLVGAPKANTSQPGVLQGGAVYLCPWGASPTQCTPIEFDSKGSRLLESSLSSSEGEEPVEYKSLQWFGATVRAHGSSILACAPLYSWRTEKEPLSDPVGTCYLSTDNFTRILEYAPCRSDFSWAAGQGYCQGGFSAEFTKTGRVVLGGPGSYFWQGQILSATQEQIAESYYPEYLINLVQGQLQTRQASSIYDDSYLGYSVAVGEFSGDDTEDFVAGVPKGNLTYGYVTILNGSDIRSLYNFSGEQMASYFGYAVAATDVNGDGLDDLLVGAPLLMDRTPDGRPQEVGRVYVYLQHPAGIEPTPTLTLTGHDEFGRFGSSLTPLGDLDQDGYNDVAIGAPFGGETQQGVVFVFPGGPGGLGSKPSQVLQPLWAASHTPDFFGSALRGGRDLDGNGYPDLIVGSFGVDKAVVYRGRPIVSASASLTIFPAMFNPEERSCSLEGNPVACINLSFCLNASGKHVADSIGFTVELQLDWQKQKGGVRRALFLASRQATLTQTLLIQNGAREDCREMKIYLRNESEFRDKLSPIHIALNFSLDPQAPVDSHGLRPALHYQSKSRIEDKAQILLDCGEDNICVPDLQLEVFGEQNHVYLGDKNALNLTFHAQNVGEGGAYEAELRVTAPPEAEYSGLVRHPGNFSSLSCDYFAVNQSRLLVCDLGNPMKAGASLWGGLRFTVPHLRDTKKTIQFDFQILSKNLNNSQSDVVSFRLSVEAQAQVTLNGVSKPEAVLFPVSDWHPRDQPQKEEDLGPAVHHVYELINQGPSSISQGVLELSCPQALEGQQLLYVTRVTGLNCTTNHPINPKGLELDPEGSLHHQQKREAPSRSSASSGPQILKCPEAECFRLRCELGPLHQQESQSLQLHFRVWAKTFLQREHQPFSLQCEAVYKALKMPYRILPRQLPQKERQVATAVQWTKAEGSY
T4 sequence (P05556 21-728 limits assumed, chain 2 of 2): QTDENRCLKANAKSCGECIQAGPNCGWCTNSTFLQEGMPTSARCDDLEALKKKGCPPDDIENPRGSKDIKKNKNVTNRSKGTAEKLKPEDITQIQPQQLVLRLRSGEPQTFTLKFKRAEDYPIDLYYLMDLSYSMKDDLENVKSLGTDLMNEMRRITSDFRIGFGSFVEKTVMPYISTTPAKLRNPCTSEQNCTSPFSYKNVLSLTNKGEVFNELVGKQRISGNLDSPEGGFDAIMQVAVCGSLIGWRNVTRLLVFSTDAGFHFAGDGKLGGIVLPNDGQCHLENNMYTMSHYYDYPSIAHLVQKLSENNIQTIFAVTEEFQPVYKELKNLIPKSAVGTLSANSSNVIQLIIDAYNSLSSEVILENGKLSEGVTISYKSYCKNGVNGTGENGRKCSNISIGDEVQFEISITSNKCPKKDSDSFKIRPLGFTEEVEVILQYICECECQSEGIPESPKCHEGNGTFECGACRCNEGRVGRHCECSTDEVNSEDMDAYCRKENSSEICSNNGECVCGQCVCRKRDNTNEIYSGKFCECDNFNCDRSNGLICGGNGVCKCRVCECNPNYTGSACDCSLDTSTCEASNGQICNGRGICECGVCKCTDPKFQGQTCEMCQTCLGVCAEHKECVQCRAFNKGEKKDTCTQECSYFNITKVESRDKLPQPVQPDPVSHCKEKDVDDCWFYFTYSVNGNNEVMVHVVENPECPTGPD
Nature of the assay: FITC-labelled peptide on coated α5β1 receptor in a 96-well plate, fluorescence intensity. On the procedure: Purified ITGA11 receptor (α11β1; 100 μg/ml—stock; R&D systems) was diluted to 5 μg/ml with 1×PBS. 96-well ELISA White Maxisorb plate (Nunc) was coated with 50 μl of 5 μg/ml ITGA11 (or as control α5β1) receptor for overnight at 4° C. Then, wells were blocked for 3-4 hours with 200 μl of blocking buffer (1×PBS containing 5% BSA). Wells were washed three times with 200 μl of washing buffer (1×PBS containing 0.5% BSA and 0.05% TWEEN®-20). Peptides conjugated with FITC were diluted to different concentrations in washing buffer and then added to the plate and incubated at 37° C. for 1 hour. In addition, the binding of the peptide was blocked by co-incubation with 10× higher amount of unlabeled peptide. Subsequently, wells were washed three times with washing buffer. Then, 100 μl of 1×PBS was added and plates were read at 485 nm/520 nm with a fluorescence plate reader.

T1 sequence (P05556 21-728 limits assumed, one chain of several): as the sequence (P05556 21-728 limits assumed, chain 2 of 2) above
T2 sequence (P06756 31-992 limits assumed, chain 1 of 2): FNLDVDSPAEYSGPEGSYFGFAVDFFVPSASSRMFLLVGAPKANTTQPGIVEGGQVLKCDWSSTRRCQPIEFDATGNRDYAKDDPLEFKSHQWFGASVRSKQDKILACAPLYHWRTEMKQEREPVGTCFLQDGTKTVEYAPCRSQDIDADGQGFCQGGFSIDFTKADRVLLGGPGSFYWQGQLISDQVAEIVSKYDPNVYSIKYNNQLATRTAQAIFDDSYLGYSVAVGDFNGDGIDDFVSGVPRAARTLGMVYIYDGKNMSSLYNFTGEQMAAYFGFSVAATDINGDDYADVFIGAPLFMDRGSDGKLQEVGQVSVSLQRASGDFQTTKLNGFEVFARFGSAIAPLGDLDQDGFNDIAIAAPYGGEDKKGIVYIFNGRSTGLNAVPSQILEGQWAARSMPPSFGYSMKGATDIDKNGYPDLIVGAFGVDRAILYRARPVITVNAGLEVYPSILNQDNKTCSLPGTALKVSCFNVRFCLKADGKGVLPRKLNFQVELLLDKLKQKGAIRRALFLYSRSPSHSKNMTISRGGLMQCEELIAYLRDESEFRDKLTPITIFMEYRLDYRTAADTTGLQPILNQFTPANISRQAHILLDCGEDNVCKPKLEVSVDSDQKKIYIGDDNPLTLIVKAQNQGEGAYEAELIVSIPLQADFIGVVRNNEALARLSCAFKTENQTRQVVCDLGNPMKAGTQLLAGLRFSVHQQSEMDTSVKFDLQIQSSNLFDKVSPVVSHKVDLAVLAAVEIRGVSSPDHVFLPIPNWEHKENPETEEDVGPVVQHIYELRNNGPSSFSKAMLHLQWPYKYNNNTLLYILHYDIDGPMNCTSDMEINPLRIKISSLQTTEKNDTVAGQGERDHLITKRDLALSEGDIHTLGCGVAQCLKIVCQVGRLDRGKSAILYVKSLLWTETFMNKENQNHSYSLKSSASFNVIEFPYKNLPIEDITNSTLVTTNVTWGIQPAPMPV
T2 sequence (P05106 27-718 limits assumed, chain 2 of 2): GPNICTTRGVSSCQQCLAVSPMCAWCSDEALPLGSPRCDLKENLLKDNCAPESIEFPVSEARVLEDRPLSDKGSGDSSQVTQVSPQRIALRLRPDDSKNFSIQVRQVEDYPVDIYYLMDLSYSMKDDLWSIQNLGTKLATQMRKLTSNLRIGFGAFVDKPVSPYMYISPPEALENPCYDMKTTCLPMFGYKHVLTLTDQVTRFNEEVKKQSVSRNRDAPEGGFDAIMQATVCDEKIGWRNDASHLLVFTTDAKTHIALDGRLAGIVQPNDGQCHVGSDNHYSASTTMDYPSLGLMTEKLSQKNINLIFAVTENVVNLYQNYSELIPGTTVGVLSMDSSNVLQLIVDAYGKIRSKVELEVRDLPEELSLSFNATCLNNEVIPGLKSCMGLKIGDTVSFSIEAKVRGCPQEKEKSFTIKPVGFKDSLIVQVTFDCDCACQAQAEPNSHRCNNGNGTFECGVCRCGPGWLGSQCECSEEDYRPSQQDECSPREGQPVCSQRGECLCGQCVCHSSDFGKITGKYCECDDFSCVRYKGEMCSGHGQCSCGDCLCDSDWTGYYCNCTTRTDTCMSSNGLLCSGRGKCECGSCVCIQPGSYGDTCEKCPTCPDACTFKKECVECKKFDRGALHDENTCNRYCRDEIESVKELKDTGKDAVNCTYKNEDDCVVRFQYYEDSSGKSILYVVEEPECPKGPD

As to SGLTEWLRWFNS (also: PEG(6)-FITC conjugated, site not given here, also called AXI-I-PEG-FITC; AXI-I-FITC) [AXI-I-PEG(6)-FITC], the results for the Kd (in the assay with rhIntegrin α11β1; in assay [3]) were 149 nM and about 1000 nM, respectively. Further, the binding result was “no binding” in assay [1] and “no binding (tested: 1.0 µM)” in assay [4]. For the same molecule, the “EC50 (read off the curve)” value in assay [2] is about 1000 nM.

Usually Kd stands for the constant that tells how readily two partners part at equilibrium. As a reminder, the EC50 (read off the curve) is the concentration that produces a half-maximal response. A higher EC50 (read off the curve) goes with a less potent agent.
